Assay [1] concerns the target T1, mouse SEMA4D, full length, on CHO-K1 cells (CHO-K1 mSEMA4D) (mouse, UniProt O09126 24-861).
T1 construct: whole, on cells; also called murine SEMA4D recombinant cells
T1 sequence (looked up): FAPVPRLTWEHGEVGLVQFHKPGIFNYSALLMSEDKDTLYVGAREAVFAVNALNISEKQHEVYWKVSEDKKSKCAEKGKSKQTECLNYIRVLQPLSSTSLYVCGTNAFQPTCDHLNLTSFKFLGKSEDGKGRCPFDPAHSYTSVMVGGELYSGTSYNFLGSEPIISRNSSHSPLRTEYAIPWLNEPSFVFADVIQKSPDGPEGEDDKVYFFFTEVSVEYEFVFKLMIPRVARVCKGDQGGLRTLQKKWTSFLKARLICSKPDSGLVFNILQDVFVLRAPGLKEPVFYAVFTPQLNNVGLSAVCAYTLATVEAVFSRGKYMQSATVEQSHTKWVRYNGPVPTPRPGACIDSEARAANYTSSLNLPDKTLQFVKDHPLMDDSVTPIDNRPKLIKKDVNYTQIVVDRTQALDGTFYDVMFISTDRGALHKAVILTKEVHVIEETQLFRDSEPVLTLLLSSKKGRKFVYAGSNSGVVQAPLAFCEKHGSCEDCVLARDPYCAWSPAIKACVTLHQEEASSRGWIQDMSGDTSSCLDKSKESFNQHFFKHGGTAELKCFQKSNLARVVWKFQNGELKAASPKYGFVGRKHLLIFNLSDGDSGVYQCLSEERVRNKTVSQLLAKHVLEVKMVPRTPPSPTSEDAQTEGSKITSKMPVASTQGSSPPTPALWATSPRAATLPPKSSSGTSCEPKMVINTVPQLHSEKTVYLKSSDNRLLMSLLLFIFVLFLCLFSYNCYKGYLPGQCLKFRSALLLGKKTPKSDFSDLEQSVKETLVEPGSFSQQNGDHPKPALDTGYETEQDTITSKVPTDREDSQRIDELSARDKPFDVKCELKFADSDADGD
Put plainly: FACS, CHO-K1 mSEMA4D cells; Ab 0.0213 nM. On the procedure: (§1) After the cells were counted, they were diluted with PBS to 2×10⁶ cells per milliliter. After washing, 100 μL of diluted and purified leading antibodies was added to each well and the plate was incubated for 1 hour on ice. […] Cells were washed 2 times by centrifugation with FACS buffer. The cells were suspended with 200 μL of FACS buffer, FACS (FACS Verse, purchased from BD) was used to detect and analyze the results.
For orientation: A flow cytometer gives signals particle by particle.

Assay [2] addresses T2, monkey SEMA4D, full length, on CHO-K1 cells (CHO-K1 cSEMA4D) (monkey).
T2 construct: whole, on cells; also called monkey SEMA4D recombinant cells
Put plainly: FACS, CHO-K1 cSEMA4D cells; Ab 13.3 nM. On the procedure: as §1

Assay [3] deals with T1, mouse SEMA4D, full length, on CHO-K1 …. Nature of the assay: FACS, CHO-K1 mSEMA4D cells; Ab 13.3 nM. The procedure: as §1
The target of assay [4] is T2, monkey SEMA4D, full length, on CHO-K1 …. Nature of the assay: FACS, CHO-K1 cSEMA4D cells; Ab 0.000853 nM. On the procedure: as §1
In assay [5] the target is T3, hSEMA4D ECD-His (His-tagged human SEMA4D protein extracellular domain, Met22-Arg734) (human, UniProt Q92854 22-734).
T3 construct: Expressed in CHO-S cells, purified on Ni column; also called protein immunogen; immunogen A; not shown: His tag of the pCP vector
T3 sequence: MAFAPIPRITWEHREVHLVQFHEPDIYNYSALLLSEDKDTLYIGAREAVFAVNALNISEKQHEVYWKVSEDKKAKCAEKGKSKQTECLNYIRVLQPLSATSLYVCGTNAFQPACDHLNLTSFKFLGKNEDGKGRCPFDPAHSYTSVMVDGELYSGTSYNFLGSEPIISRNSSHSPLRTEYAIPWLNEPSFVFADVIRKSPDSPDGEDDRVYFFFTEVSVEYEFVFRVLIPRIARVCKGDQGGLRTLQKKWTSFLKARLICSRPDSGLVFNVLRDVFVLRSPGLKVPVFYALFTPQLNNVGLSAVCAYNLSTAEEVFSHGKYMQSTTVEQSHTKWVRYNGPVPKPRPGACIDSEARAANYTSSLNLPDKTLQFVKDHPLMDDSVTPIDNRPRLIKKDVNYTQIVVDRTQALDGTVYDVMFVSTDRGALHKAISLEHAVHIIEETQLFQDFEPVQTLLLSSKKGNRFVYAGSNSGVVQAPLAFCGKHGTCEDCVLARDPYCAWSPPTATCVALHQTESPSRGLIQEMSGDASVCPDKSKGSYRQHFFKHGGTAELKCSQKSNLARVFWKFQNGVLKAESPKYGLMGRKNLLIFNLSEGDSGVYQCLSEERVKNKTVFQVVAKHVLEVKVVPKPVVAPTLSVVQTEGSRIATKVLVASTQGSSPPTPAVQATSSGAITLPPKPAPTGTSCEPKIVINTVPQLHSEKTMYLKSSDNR
Nature of the assay: ELISA, coated hSEMA4D ECD-His; Ab 0.267 nM. The procedure:
First, hSEMA4D ECD-His was diluted with PBS to a final concentration of 1.0 μg/mL, and then was added to a 96-well ELISA plate, 100 μL per well, sealed with plastic film and incubated overnight at 4° C. On the next day, the plate was washed with a plate washing solution, that is, PBS buffer containing 0.05% (v/v) Tween20, for 4 times, and added with blocking solution, that is, PBS buffer containing 0.05% (v/v) Tween20 and 2% (w/w) BSA, blocked at 37° C. for 1 hour. The blocking solution was poured out and the plate was washed 4 times with the plate washing solution. 100 μL of the purified leading antibodies obtained in Examples 1 and 2 was added to each well. After incubation at 37° C. for 1 hour, the plate was washed 4 times with a plate washing solution. 100 μL of horseradish peroxidase (HRP) labeled secondary antibody (purchased from Sigma) was added at a dilution of 1:10000 to each well, and the plate was incubated at 37° C. for 1 hour, and washed 4 times with a plate washing solution. 100 μL TMB substrate was added to each well, and the plate was incubated at room temperature for 5 minutes, and added with 100 μL stop solution (1.0N HCl) to each well. A microplate reader (SpectraMax M5e, purchased from Molecular Device) was used to read the A450 nm value. […] Wherein, the data in the table was the OD450 nm value.
In general terms: An ELISA detects its analyte on a solid surface through an enzyme-linked reagent.

Positions count from the first letter of the chain named.

B1: 42B7G2 (antibody, V domains shown)
VH: QVQLQQSGAELARPGASVKLSCKASGYTFTDYGISWVKQRTGQGLEWIGEIYLRNDNSYYNEKFKGKATLTADKSSNTAYMELRSLTSEDSAVYFCARWGDHGNNYEDAMDYWGQGTSVTVSS
VL: DIVLTQSPASLAMSLGKRATISCRASESVSIIGSNLIHWYQQKPGQPPKLLIYHASNLETGVPARFSGSGSRTDFTLTIDPVEEDDVAIYYCLQSRKVPYTFGGGTKLEIK
notes: Mouse monoclonal antibody purified from hybridoma supernatant on protein A
On to B1, for which the MFI was found to be 31.6 in assay [1], 2590 in assay [2], 30.7 in assay [3] and 54.5 in assay [4]. In addition, the OD450 nm in assay [5] stood at 1.4.

B2: 37F11F9 (antibody, V domains shown)
VH: EVQLQQSGPVLVKPGASVKMSCKASGYTFTDYYMNWVKQSHGKSLEWIGLINPYSGGSTFNQKFKAKATLTVDKSSSSAYMDLNSLTSEDSAVYYCARVGDGYYGVTHGMDYWGQGTSVTVSS
VL: DIVMTPSQKFMSTTVGDRVSITCKASQNVGTAVAWYQQKPGQSPTILIYSASNRYTGVPDRFTGSGSGTDFTLTISNMKSEDLADYFCQQYYIYPFTFAAGTKLELK
notes: as for B1
Take B2: the MFI in assay [1] worked out at 30.5; in assay [2] it was 2480; in assay [3], 30.1; in assay [4], 29.5. For the same molecule, the OD450 nm in assay [5] stood at 0.89.

B3: 37C4F7 (antibody, V domains shown)
VH: EFQLQQSGPEVVKPGASVKISCKASGYSFTDYNMNWMKQSKGKSLEWIGVINPNYGTTTYNQNFKGKATLTVDQSSSTAYMQLNSLTSEDSAVYYCARDMYYVYAYYTMDYWGQGTSVTVSS
VL: DVVMTQTPLSLPVSLGDQASISCRSSQSLVHSNGHTYLHWYLQRPGQSPTLLIYKVSNRFSGVPDRFSGSGSGTDFTLKISRVEAEDLGVYFCSQGTHVPWTFGGGTKLEIK
notes: as for B1
Take B3: the MFI amounted to 30.8 in assay [1], 2790 in assay [2], 29.8 in assay [3] and 29 in assay [4]. Also, in assay [5], the OD450 nm came to 0.41.

B4: 38H2E3 (antibody, V domains shown)
VH: B3 VH with N52S, N54D, G66D, R98K, Q114H
VL: B3 VL with F67V, W101R
notes: as for B1
As to B4, the MFI was found to be 30.1 in assay [1], 2800 in assay [2], 31 in assay [3] and 26.1 in assay [4]. In addition, in assay [5], the OD450 nm was 0.531.

B5: 32C8F10 (antibody, V domains shown)
VH: EVQLQQSGAELVRPGASVKLSCTASGFNIKDEYIHWVKQRPEQGLEWIGWIDPANGHTEYASRFQAKATITADTSSNTAYLQLSSLTSEDTAVYYCTTGDYDGFAYWGQGTLVTVST
VL: QIVLTQSPAIMSASPGEKVTISCSARSSVSYMYWYQQKPGSSPKPWIYRTSNLASGVPARFSGSGSGTSYSLTISSMEAEDAATYYCQHYHTYPYTFGGGTKLEIK
notes: as for B1
With B5, the MFI is 29.5 in assay [1], 5590 in assay [2], 30.6 in assay [3] and 49.7 in assay [4]. The OD450 nm in assay [5] worked out at 1.28.

B6: 31C11G2 (antibody, V domains shown)
VH: B5 VH with A105V
VL: B5 VL with S22F
notes: as for B1
For the molecule B6, the MFI in assay [1] was 30.8; in assay [2], 4390; in assay [3] it was 31.3; in assay [4], 81.4. The same molecule registered an OD450 nm in assay [5] of 1.47.

B7: 31G10C5 (antibody, V domains shown)
VH: B5 VH with E32D, T58I, R63N, A105T
VL: B5 VL
notes: as for B1
For the molecule B7, the MFI in assay [1] amounted to 29.6; in assay [2], 4580; in assay [3], 30.9; in assay [4] it was 61.5. The same molecule returned an OD450 nm in assay [5] of 1.15.
